Drawing on patent US20220143145A1, this text covers concentration that completely reversed TNFα-induced sensitization of capsaicin-evoked calcium influx for one substance.

The target in test [1] is IL10 receptor (IL10Rα) on mouse sensory neurons (mouse) (UniProt Q61727). In words: cell-based or functional assay.
The target of test [2] is IL4 receptor (IL4Rα) on mouse sensory neurons (mouse) (UniProt P16382). Nature of the test: cell-based or functional assay.
UniProt P16382, sequence (P16382 26-810): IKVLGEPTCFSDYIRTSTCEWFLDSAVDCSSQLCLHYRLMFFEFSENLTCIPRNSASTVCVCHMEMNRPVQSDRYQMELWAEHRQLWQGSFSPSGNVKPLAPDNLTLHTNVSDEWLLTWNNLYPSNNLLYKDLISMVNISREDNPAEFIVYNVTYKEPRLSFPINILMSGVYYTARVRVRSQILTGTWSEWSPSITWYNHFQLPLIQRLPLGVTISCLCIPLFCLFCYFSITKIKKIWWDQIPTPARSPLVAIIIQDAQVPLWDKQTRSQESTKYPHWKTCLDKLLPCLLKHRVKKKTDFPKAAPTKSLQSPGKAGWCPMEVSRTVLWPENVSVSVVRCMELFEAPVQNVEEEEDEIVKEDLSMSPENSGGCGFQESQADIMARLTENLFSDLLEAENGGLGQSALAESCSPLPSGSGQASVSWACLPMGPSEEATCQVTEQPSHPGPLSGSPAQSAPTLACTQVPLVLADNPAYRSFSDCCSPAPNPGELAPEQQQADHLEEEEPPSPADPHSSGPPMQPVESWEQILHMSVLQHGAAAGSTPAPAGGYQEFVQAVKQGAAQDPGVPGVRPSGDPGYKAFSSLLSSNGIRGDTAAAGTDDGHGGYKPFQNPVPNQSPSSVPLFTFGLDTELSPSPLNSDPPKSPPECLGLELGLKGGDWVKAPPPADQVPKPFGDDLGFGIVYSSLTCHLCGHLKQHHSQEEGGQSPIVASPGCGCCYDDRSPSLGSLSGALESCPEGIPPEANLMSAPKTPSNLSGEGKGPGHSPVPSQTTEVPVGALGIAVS

UniProt Q61727, sequence (Q61727 17-575): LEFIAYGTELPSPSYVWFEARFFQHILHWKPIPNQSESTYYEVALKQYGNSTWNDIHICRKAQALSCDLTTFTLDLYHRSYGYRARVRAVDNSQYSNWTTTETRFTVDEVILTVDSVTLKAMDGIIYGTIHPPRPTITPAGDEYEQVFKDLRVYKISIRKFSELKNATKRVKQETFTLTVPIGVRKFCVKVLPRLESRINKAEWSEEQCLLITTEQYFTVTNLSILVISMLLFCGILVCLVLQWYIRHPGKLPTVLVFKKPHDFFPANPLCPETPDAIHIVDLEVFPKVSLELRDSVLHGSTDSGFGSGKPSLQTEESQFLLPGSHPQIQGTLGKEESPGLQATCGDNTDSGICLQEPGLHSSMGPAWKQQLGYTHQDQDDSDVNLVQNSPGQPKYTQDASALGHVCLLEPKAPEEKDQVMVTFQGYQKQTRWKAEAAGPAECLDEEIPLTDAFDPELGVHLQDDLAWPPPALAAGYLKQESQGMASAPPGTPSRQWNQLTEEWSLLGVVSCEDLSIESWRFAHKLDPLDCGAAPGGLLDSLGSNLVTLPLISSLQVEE

For IL4-10 fusion protein (ligand), the concentration that completely reversed TNFα-induced sensitization of capsaicin-evoked calcium influx in test [1] and in test [2] was 3 nM throughout.
